Test results reported in EP4596580A1 (Staidson (Beijing) Biopharmaceuticals Co., Ltd., dated 2025).
Where two headings read alike, the source gives them in different places.

Columns and labels:
[1] = target: T1, His-human LIGHT (human); test: cell-based or functional assay
T1 chain: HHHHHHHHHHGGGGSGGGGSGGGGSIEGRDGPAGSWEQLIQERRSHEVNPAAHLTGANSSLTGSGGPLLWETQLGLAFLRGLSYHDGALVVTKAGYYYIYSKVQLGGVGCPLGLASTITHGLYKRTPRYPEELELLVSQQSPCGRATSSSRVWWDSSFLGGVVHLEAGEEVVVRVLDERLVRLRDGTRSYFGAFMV

[2] = target: T2, His-cynomolgus monkey LIGHT (cynomolgus monkey); test: ELISA, His-cynoLIGHT coated
T2 construct: also called His-cynoLIGHT
T2 chain: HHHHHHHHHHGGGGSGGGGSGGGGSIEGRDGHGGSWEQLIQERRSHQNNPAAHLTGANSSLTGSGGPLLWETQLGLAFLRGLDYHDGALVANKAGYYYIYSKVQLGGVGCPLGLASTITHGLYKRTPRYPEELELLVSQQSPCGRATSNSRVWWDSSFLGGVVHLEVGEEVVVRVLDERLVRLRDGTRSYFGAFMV

[3] = target: T1, His-human LIGHT; test: ELISA, His-huLIGHT coated
[4] = target: T1, His-human LIGHT; test: SPR, Biacore 8K, antibody on CM5 chip
[5] = target: T1, His-human LIGHT; test: cell-based or functional assay
[6] = target: T3, LIGHT on the surface of HEK293-LIGHT stable cells (human, UniProt O43557 1-240); test: cell-based or functional assay
[7] = target: T1, His-human LIGHT; test: cell-based or functional assay
[8] = target: T1, His-human LIGHT; test: cell-based or functional assay
[9] = target: T1, His-human LIGHT; test: cell-based or functional assay
[10] = target: T1, His-human LIGHT; test: ELISA, His-huLIGHT coated
[11] = target: T2, His-cynomolgus monkey LIGHT; test: ELISA, His-cynoLIGHT coated
[12] = target: T4, hFc-human LIGHT (human); test: competition ELISA, LTβR-His coated, hFc-huLIGHT added
T4 construct: also called hFc-huLIGHT

[13] = target: T1, His-human LIGHT; test: cell-based or functional assay
[14] = target: T3, LIGHT on the surface of HEK293-LIGHT …; test: cell-based or functional assay; remark: listed apart in the source
[15] = target: T1, His-human LIGHT; test: cell-based or functional assay
[16] = target: T1, His-human LIGHT; test: ELISA, His-huLIGHT coated
[17] = target: T4, hFc-human LIGHT; test: competition ELISA, LTβR-His coated, hFc-huLIGHT added; remark: listed apart in the source
[18] = target: T5, His-mouse LIGHT (mouse); test: ELISA, His-musLIGHT coated
T5 construct: also called His-musLIGHT
T5 chain: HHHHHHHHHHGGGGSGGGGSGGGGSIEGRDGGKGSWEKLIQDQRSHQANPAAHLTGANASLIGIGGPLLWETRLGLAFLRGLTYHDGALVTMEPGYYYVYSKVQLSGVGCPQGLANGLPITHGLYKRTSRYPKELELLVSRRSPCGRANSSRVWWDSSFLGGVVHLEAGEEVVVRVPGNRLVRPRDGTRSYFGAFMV

[19] = target: T1, His-human LIGHT; test: cell-based or functional assay
[20] = target: T3, LIGHT on the surface of HEK293-LIGHT …; test: cell-based or functional assay; remark: listed apart in the source
[21] = target: T1, His-human LIGHT; test: cell-based or functional assay
[22] = target: T1, His-human LIGHT; test: ELISA, His-huLIGHT coated
[23] = target: T2, His-cynomolgus monkey LIGHT; test: ELISA, His-cynoLIGHT coated
[24] = target: T4, hFc-human LIGHT; test: competition ELISA, LTβR-His coated, hFc-huLIGHT added; remark: listed apart in the source
[25] = target: T2, His-cynomolgus monkey LIGHT; test: ELISA, His-cynoLIGHT coated

B1: LT-m33 (antibody, human IgG4, V domains shown)
VH: QVQLKQSGAELVKPGASVRLSCKTSGYTFTNYYVYWVKQRPGQGLEWIGEINPTNGDPNFNEKFKSKATLTVDKSSSTAYMHLSSLTSEDSAVYYCTRSNWDYGNAMDFWGQGTSVTVSS
VL: DIVMTQSPASLAVSLGQRATISCKASQSVDFDGDGYMNWYQQKPGQPPKLLIYKASHLDSGIPARFSGSGSGTDFTLNIHPVEEEDAATYYCQQSIEDPLTFGDGTRLEIK
In the case of B1, the “IC50, HVEM NF-κB luciferase reporter (293T-HVEM-NF-κB-Luc), free LIGHT” value [1] is reported as 0.207 µg/mL, the binding result [2] is reported as “binds” and the EC50 [3] is reported as 0.0221 µg/mL. The Kd [4] was 0.0235 nM, the koff [4] was 4.07e-05 s⁻¹ and the kon [4] was 1.73e+06 M⁻¹ s⁻¹.

B2: hum_LT-m37-16 (antibody, human IgG4, V domains shown)
VH: QVQLVQSGAEVKKPGASVKVSCKASGYSFTGYFINWVRQAPGQGLEWIGRIYPYNVDTFYNQNFKGRVTMTADKSTSTAYMELSSLRSEDTAVYYCGRGTHYYGSSGAMDYWGQGTLVTVSS
VL: EIVLTQSPATLSVSPGERATLSCKASQNVGTAVAWYQQKPGQSPRLLIYSASNRYTGIPARFSGSGSGTEFTLTISSLQSEDFAVYYCQQYSSYPYTFGGGTKVEIK
notes: humanized from LT-m37
B2 was tested, and the “IC50, LTβR NF-κB luciferase reporter, free LIGHT” value [5] was 0.158 nM, the “IC50, LTβR NF-κB luciferase reporter, HEK293-LIGHT cells” value (“IC50 … HEK293-LIGHT cells” below) [6] was 2.55 nM and the “IC50, HVEM NF-κB luciferase reporter, free LIGHT” value [7] was 0.179 nM. For the same binder, the “IC50, LIGHT induced MMP-9 production in BEAS-2B bronchial epithelial cells” value [8] was 0.305 µg/mL, the “IC50, proliferation of CD3+ T cells stimulated by plate-bound anti-CD3 and His-huLIGHT (CellTiter Glo)” value [9] was 0.385 µg/mL and the EC50 [10] was 0.0369 nM. For the same binder, the EC50 [11] was 0.104 nM and the IC50 [12] was 0.808 nM.

B3: hum_LT-m58-1 (antibody, human IgG4, V domains shown)
VH: QVQLVQSGAEVKKPGASVKVSCKASGYTFIDHIMNWVRKAPGQGLEWMGRIYPVSGETNYNQKFMGRATFTVDRSTSTVYMELSSLRSEDTAVYYCGRGSYYWNAMDYWGQGTLVTVSS
VL: EIVMTQSPATLSVSPGERATLSCKASQSVDFDGDSYMNWYQQKPGQPPRLLIYSASNLESGIPARFSGSGSGTEFTLTISSLQSEDFAVYYCQQSIEDPWTFGQGTKLEIK
notes: humanized from LT-m58
B3 was tested, and the “IC50, LTβR NF-κB luciferase reporter, free LIGHT” value [13] was 0.183 nM, the “IC50 … HEK293-LIGHT cells” value [14] was 8.06 nM and the “IC50, HVEM NF-κB luciferase reporter, free LIGHT” value [15] was 0.0933 nM. For the same binder, the EC50 [16] was 0.0141 nM and the IC50 [17] was 0.291 nM.

B4: hum_LT-m85-3 (antibody, human IgG4, V domains shown)
VH: QVQLVQSGAEVKKPGASVKVSCKASGYTFTSYNVHWVRQAPGQGLEWIGAVYPGNGDTSYNQKFKGRATLTADKSTSTVYMELSSLRSEDTAVYYCARGSYYYTSSYFDHWGQGTLVTVSS
VL: EIVMTQSPATLSVSPGERATLSCKASQSVDFDGDSYMNWYQQKPGQPPRLLIYTASNLESGIPARFSGSGSGTEFTLTISSLQSEDFAVYYCQQSYEDPFTFGQGTKLEIK
notes: humanized from LT-m85
In the case of B4, the binding result [18] is reported as “no binding”, the “IC50, LTβR NF-κB luciferase reporter, free LIGHT” value [19] is reported as 0.159 nM and the “IC50 … HEK293-LIGHT cells” value [20] is reported as 4.68 nM. For the same binder, the “IC50, HVEM NF-κB luciferase reporter, free LIGHT” value [21] was 0.564 nM, the EC50 [22] was 0.00869 nM and the EC50 [23] was 0.0155 nM. For the same binder, the IC50 [24] was 0.282 nM.

B5: hum_LT-m58-5 (antibody, human IgG4, V domains shown)
VH: QVQLVQSGAEVKKPGASVKVSCKASGYTFIDHIMNWVRKAPGQGLEWIGRIYPVSGETNYNQKFMGRVTFTVDRSTSTVYMELSSLRSEDTAVYYCGRGSYYWNAMDYWGQGTLVTVSS
VL: EIVMTQSPATLSVSPGERATLSCKASQSVDFDGESYMNWYQQKPGQAPRLLIYSASNLESGIPARFSGSGSGTEFTLTISSLQSEDFAVYYCQQSIEDPWTFGQGTKVEIK
notes: humanized from LT-m58
With B5 the binding result [18] was “no binding”, the EC50 [16] was 0.0305 nM and the EC50 [25] was 0.00443 nM. For the same binder, the IC50 [17] was 0.746 nM.
